# Patent US20240034792A1 (HARBOUR BIOMED SHANGHAI, published 2024)
# Tests used:
# [1] = target: T1, Human PD-1 expressed on CHO-K1 cells (CHO-K1/hPD-1) (human, UniProt Q15116 25-288); assay: FACS, CHO-K1/hPD-1 cells
# T1 construct: whole, on cells; also called CHO-K1 cells overexpressing human PD-1
# Method: (§1) In order to investigate the in vitro binding activity of the PD-1 antigen-binding proteins to human/cynomolgus monkey PD-1, the binding assay at the cellular level was performed using a CHO-K1 cell strain overexpressing human or cynomolgus monkey PD-1 (CHO-K1/hPD-1 or CHO-K1/cyno PD-1, from GenScript). Briefly, the CHO-K1-hPD-1 cells were digested and resuspended in an F-12K complete medium, and the cell density was adjusted to 1×10⁶ cells/mL. The cells were seeded in a 96-well V-bottom plate (Corning, Cat#3894) at 100 μL/well, followed by the addition of the test antigen-binding proteins with concentrations 2-fold of final concentrations obtained by 5-fold gradient dilution were each added at 100 μL/well. The mixtures were well mixed. The maximum final concentration of the antigen-binding proteins was 100 nM or 300 nM. A total of 8-11 concentrations were set. hIgG was used as a control. The cells were incubated at 4° C. for 1 h away from light. Thereafter, the cells in each well were rinsed twice with 100 μL of pre-cooled PBS, and centrifuged at 500 g at 4° C. for 5 min, and then the supernatant was discarded. Then 100 μL of a fluorescent secondary antibody (goat anti-human IgG (H+L) secondary antibody, Alexa Fluor® 488 conjugate, Invitrogen, Cat #A11013, 1:1000) was added to each well. The plate was incubated away from light at 4° C. for 30 min. The cells in each well were rinsed twice with 200 μL of pre-cooled PBS, and centrifuged at 500 g at 4° C. for 5 min, and then the supernatant was discarded. Finally, the cells in each well were resuspended in 200 μL of pre-cooled PBS, and the fluorescence signal values were read using a BD FACS CANTOII.
# [2] = target: T2, Cynomolgus monkey PD-1-His protein (AcroBiosystems, # PD1-05223) (cynomolgus monkey, UniProt B0LAJ3 25-170); assay: ELISA, plate-coated cynomolgus monkey PD-1-His
# T2 construct: Bought reagent, coated on the ELISA plate; also called cynomolgus monkey PD-1 protein
# Method: Cynomolgus monkey PD-1-His protein (AcroBiosystems, # PD1-05223) was diluted to 2 μg/mL with PBS, added to a 96-well plate (Corning, #9018) at 100 μL/well, and incubated at 4° C. overnight. After the liquid was discarded, the plate was washed 3 times with PBST, blocked by adding 250 μL of 2% BSA, and incubated at room temperature for 1 h. The blocking buffer was discarded, and the plate was washed 3 times with PBST buffer (pH 7.4, containing 0.05% Tween-20). The test antigen-binding protein was diluted to 5 μg/mL, and added at 100 μL/well. The plate was incubated at 37° C. for 1 h. After the plate was washed 3 times with PBST buffer (pH 7.4, containing 0.05% Tween-20), a 4000-fold diluted goat anti-human HRP secondary antibody (Invitrogen, #A18805) was added. The plate was incubated at 37° C. for 1 h. After the plate was washed, TMB (Biopanda, # TMB-S-003) was added at 100 μL/well. The plate was left away from light at room temperature for 5 min. The reactions were terminated by adding 50 μL of stop buffer (BBI life sciences, #E661006-0200) to each well, and the absorbance values at 450 nm (OD450) were measured using a microplate reader (PerkinElemer, #Enspire).
# [3] = target: T1, Human PD-1 expressed on CHO-K1 cells …; assay: FACS blocking of biotin-labeled human PD-L1 binding to CHO-K1-hPD-1 cells
# Method: (§2) Briefly, the CHO-K1-hPD-1 cells were digested and resuspended in an F-12K complete medium, and the cell density was adjusted to 1×10⁶ cells/mL. The cells were seeded in a 96-well V-bottom plate (Corning, Cat#3894) at 100 μL/well, followed by the addition of the test antigen-binding proteins with concentrations 2-fold of final concentrations obtained by 3-fold or 5-fold gradient dilution were each added at 100 μL/well. The mixtures were well mixed. The maximum final concentration of the antigen-binding proteins was 100 nM or 300 nM. A total of 8 concentrations were set. hIgG was used as a control. The cells were incubated at 4° C. for 1 h away from light. […] The cells were incubated at 4° C. away from light for 30 min. The cells in each well were rinsed twice with 100 μL of pre-cooled PBS, and centrifuged at 500 g at 4° C. for 5 min, and then the supernatant was discarded. A fluorescent secondary antibody (PE Streptavidin, BD, Cat# 554061, 1:200) was added at 100 μL/well, and the cells were incubated at 4° C. away from light for 30 min. The cells in each well were rinsed twice with 200 μL of pre-cooled PBS, and centrifuged at 500 g at 4° C. for 5 min, and then the supernatant was discarded. Finally, the cells in each well were resuspended in 200 μL of pre-cooled PBS, the fluorescence signal values were read using a BD FACS CANTOII, and the IC₅₀ values were calculated.
# [4] = target: T3, Human PD-1-His protein (ACROBiosystems, # PD1-H5221) (human, UniProt Q15116 25-167); assay: ELISA, plate-coated human PD-1-His
# T3 construct: Bought reagent, coated on the ELISA plate; also called human PD-1 protein; human PD-1 antigen; not shown: His tag
# Method: Human PD-1-His protein (ACROBiosystems, # PD1-H5221) was diluted to 2 μg/mL with PBS, added to a 96-well plate (Corning, cat#9018) at 100 μL/well, and incubated at 4° C. overnight. After the liquid was discarded, the plate was washed 3 times with PBST buffer (pH 7.4, containing 0.05% Tween-20), and 250 μL of 2% BSA blocking buffer was added. The plate was incubated at 37° C. for 1 h. The blocking buffer was discarded, and the plate was washed 3 times with PBST buffer (pH 7.4, containing 0.05% Tween-20). The test antigen-binding protein was 5-fold diluted in sequence at an initial concentration of 100 nM for a total of 8-10 concentration gradients, and added at 100 μL/well. The plate was incubated at 37° C. for 1 h. An isotype antibody was taken as a control. After the plate was washed 3 times with PBST buffer (pH 7.4, containing 0.05% Tween-20), a 4000-fold diluted goat anti-human HRP secondary antibody (Invitrogen, #A18805) was added. The plate was incubated away from light at 37° C. for 1 h. After the plate was washed 3 times with PBST buffer (pH 7.4, containing 0.05% Tween-20), TMB (Biopanda, # TMB-S-003) was added at 100 μL/well. The plate was left away from light at room temperature for about 5 min. The reactions were terminated by adding 50 μL of stop buffer (BBI life sciences, #E661006-0200) to each well, and the absorbance values at 450 nm (OD450) were measured using a microplate reader (PerkinElemer, #Enspire). The half maximal effective concentration (EC₅₀) was calculated from the measurement results.
# [5] = target: T1, Human PD-1 expressed on CHO-K1 cells …; assay: FACS blocking of biotin-labeled human PD-L2 binding to CHO-K1-hPD-1 cells
# Method: as §2
# [6] = target: T4, Cynomolgus monkey PD-1 expressed on CHO-K1 cells (CHO-K1/cyno PD-1) (cynomolgus monkey, UniProt B0LAJ3 25-288); assay: FACS, CHO-K1/cyno PD-1 cells
# T4 construct: also called CHO-K1 cells overexpressing cynomolgus monkey PD-1
# Method: as §1
# T4 sequence (B0LAJ3 entry or part of it limits assumed): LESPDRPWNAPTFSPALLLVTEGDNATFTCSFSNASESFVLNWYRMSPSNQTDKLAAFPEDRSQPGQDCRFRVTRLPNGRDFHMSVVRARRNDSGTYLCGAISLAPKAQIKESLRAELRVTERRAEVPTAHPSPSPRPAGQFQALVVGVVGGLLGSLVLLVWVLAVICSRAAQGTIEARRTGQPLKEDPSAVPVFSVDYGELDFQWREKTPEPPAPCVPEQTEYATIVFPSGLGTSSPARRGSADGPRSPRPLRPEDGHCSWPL
# T2 sequence (B0LAJ3 entry or part of it limits assumed): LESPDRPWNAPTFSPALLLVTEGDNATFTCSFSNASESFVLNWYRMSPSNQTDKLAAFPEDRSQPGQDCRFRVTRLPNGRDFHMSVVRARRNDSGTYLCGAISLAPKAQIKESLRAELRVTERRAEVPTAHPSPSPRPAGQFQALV
# T1 sequence (Q15116 25-288): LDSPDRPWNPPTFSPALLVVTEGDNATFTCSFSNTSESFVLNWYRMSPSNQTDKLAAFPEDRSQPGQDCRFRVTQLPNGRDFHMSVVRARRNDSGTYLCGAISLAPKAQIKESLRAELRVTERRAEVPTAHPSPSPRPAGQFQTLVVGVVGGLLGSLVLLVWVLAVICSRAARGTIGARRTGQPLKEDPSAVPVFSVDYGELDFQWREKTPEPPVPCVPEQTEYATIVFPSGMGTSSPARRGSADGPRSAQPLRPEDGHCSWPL
# T3 sequence (Q15116 25-167 limits assumed): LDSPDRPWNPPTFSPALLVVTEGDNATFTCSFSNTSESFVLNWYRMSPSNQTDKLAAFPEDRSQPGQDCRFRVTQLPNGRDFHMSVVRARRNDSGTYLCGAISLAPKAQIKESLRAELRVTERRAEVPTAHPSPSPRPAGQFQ
Binder,EC50 [1],MFI Maximum [1],EC50 [2],OD Maximum [2],IC50 [3],Maximum inhibition rate (%) [3],EC50 [4],OD Maximum [4],IC50 [5],Maximum inhibition rate (%) [5],EC50 [6],MFI Maximum [6]
"PR002474 (antibody, human IgG1, V domains shown, Heavy-chain-only antibody (HCAb), human IgG1 Fc; two heavy chains, no light chain; also called R4004P547D3) VH: EVQLVETGGGLIQPGGSLRLSCAASGFNVSSHYMSWVRQAPGKGLEWVSIIHSGGSTYYADSVKGRFTISRDNSKNRLYLQMNSLRADDTAVYYCARATAVAEKNGYNYPFNYWGQGTLVTVSS",13.9 nM,1.08e+06,0.345 nM,2.89,8.91 nM,92.2%,0.189 nM,2.97,–,–,–,–
"PR000673 (antibody, human IgG4 S228P, kappa, V domains shown, Fully human recombinant H2L2 antibody, human IgG4, kappa light chain; also called 4004_10H9A12) VH: QVQLVESGGGVVQPGRSLRLSCAASGFIFSNYGMHWVRQAPGKGLEWVAVIWYDGSKKYYGDSVKGRFTISRDNSKNTLYLQMNSLRDEDTAVYFCARNDDYWGQGTLVTVSS VL: EIVLTQSPATLSFSPGERATLSCRASQSVSSDLAWYQQKPGQAPSLLIYDASNRATGIPARFSGSGSGTDFTLTISSLEPEDFAVYYCHQRNNWPLTFGGGTKVEIKR",4.76 nM,1.57e+06,–,–,0.402 nM,45.6%,0.066 nM,3.09,1.55 nM,90.3%,2.04 nM,38200
"PR000675 (antibody, human IgG4 S228P, kappa, V domains shown, Fully human recombinant H2L2 antibody, human IgG4, kappa light chain; also called 4004_19G8F2) VH: EVQLLESGGGLVQPGGSLRLSCVDSGFTFSSYAMTWVRQAPGKGLEWVSGISGSGYSTYYADSVKGRFTISRDNSKKTLYLQMNSLRAEDTAVYYCAELSLDYWGQGTLVTVSS VL: EIVLTQSPATLSLSPGERATLSCRASQSVSRYLAWYQQKPGQAPRLLMHDAANRATGLPARFNGSGSGTDFTLTISSLEPEDFAVYYCQQRNNWPLTFGGGTKVEIKR",7.91 nM,2.29e+06,–,–,12.4 nM,72%,0.113 nM,3.31,19.7 nM,59.9%,6.91 nM,36800
"PR000677 (antibody, human IgG4 S228P, kappa, V domains shown, Fully human recombinant H2L2 antibody, human IgG4, kappa light chain; also called 4004_33B9E4) VH: QVQLQQSGPGLVKPSQTLSLTCAISGDSVSSNSAAWNWIRQSPSRGLEWLGRTYYRSKWYSDYGISVNSRITVNPDTSKNLFSLQLNPVTPEDTAVYYCTRETHYYGSGSYLDYWSQGTLVTVSS VL: not shown",2.1 nM,1.87e+06,–,–,3.4 nM,31.2%,0.078 nM,3.27,4.52 nM,14%,2.86 nM,34500

# More lines, in order of falling IC50 [3], values ahead:
EC50 [1],MFI Maximum [1],EC50 [2],OD Maximum [2],IC50 [3],Maximum inhibition rate (%) [3],EC50 [4],OD Maximum [4],IC50 [5],Maximum inhibition rate (%) [5],EC50 [6],MFI Maximum [6],Binder
10.2 nM,2.16e+06,–,–,25.6 nM,76%,0.121 nM,3.32,–,–,8.34 nM,39000,"PR000676 (antibody, human IgG4 S228P, kappa, V domains shown, Fully human recombinant H2L2 antibody, human IgG4, kappa light chain; also called 4004_1A7A1) VH: QIQLVESGGGVVQPGRSLRLSCAASGFTLSSYGMHWVRQAPGKGLEWVAVILSDGSNKYYADSVKGRFTISRDNSKNTLYLQMNSLRAEDTAVYYCADLGGDVWGQGTTVTVSS VL: EIVLTQSPATLSLSPGERATLSCRASQSVSSYLAWYQQKPGQAPRLLIYDASTRATGIPARFSGSGSGTDFTLTISSLEPEDFAVYYCQQRSNWPLTFGGGTKVEIKR"
12.7 nM,1.02e+06,0.366 nM,2.7,10.3 nM,91.3%,0.171 nM,2.92,–,–,–,–,"PR002476 (antibody, human IgG1, V domains shown, Heavy-chain-only antibody (HCAb), human IgG1 Fc; two heavy chains, no light chain; also called R4004P547H11) VH: EVQLVETGGGLIQPGGSLRLSCAASGFNVSSHYMSWVRQAPGKGLEWVSIIHSGGSTYYADSVKGRFTISRDNSKNRLYLQMNSLRAEDTAVYYCARATAVAEKNGYNYPFNYWGQGTLVTVSS"
1.94 nM,2.35e+06,–,–,0.769 nM,66.7%,0.074 nM,3.24,1.83 nM,92.7%,2.35 nM,41200,"PR000674 (antibody, human IgG4 S228P, kappa, V domains shown, Fully human recombinant H2L2 antibody, human IgG4, kappa light chain; also called 4004_12H9C1) VH: QVQLVESGGGVVQPGKSLRLSCTVSGLTFSDNGMHWVRQAPGRGLEWMSVIWYDGSKKYYADSVKGRFTISRDNSKNTLYLQMNNMRVEDTAVYYCATNSDYWGQGTLVTVSS VL: EIVLTQSPATLSLSPGERATLSCRASQSVSSYLAWYQQKPGQAPRLLIYDTSKRATGIPARFSGSGSGTDFTLTISSLEPEDFAVYYCQQHNNWIFTFGPGTKVDIKR"
–,–,–,–,0.437 nM,40.2%,0.102 nM,3.31,3.38 nM,80.1%,1.58 nM,24800,"PR000679 (antibody, human IgG4 S228P, kappa, V domains shown, Fully human recombinant H2L2 antibody, human IgG4, kappa light chain; also called 4004_6C11C6) VH: QVQLVQSGTEVKKPGSSVKVSCKASGGTFSSYAISWVRQAPGQGLEWMGGIIPIFDTVSSAQKFQGRVTITADKSTSTAYMELFSLRSEDTAVYYCARSPPYSSNWYQYFQHWGQGTLVTVSS VL: DIQMTQSPSTLSASVGDRVTITCRASQTISIWLAWYQQKPGKAPKLLIYKASSLESGVPSRFSGSGSGTEFTLTISSLQPDDFATYYCQQFNSYWTFGQGTKVEIKR"
